{"source": "patent US20190040136A1", "about": "(AGENCY FOR SCIENCE TECHNOLOGY AND RESEARCH, published 2019)", "binders": {"B1": {"name": "anti-LAG-3 antibody clone 1G11 Fab (Fab, V domains shown)", "VH": "QLQLQESGGDVVQPGRSLRLSCAASGFTFSSYGMHWVRQAPGKGLEWVAVISYDGSNKYYADSVKGRFTISRDNSKNTLYLQMNSLRAEDTAVYYCARLPGWGAYAFDIWGQGTMVTVSS", "VL": "EIVLTQSPGTLSLSPGERATLSCRASQSVSSSFLAWYQQKPGQAPRLLIYGASSRATGIPDRFSGSGSGTDFTLTISRLEPEDFAVYYCQQYGPSITFGGGTKVEIK"}, "B2": {"name": "anti-LAG-3 antibody clone C12 Fab (Fab, V domains shown)", "VH": "QVQLVQSGAEVKKPGSSVKVSCKASGGTFSSYAISWVRQAPGQGLEWMGGIIPIFGTANYAQKFQGRVTITADESTSTAYMELSSLRSEDTAVYYCARALADFWSGYYYYYYMDVWGKGTTVTVSS", "VL": "DVVMTQSPLSLPVTPGEPASISCRSSQSLLHSDGYNYFDWYLQKPGQSPQLLIYLGSNRAAGVPDRFSGSGSGTDFTLKISRVEAEDVGVYYCMQGTHWPPTFGQGTKLEIK"}, "B3": {"name": "anti-LAG-3 antibody clone G8 in IgG1 format (antibody, V domains shown)", "VH": "QVQLVQSGGGVVQPGRSLRLSCAASGFTFSSYAMHWVRQAPGKGLEWVAVISYDGSNKYYADSVKGRFTISRDNSKNTLYLQMNSLRAEDTAVYYCARDPDAANWGFLLYYGMDVWGQGTTVTVSS", "VL": "EIVLTQSPGTLSLSPGERATLSCTTSQSVSSTSLDWYQQKPGQAPRLLIYGASSRATGIPDRFSGSGSGTDFTLTISRLEPEDFAVYYCQQYGSSLLTFGGGTKVEIK", "notes": "IgG1 format; also called G8 IgG1"}, "B4": {"name": "anti-LAG-3 antibody clone G8 (format not stated) (antibody, V domains shown)", "VH": "B3 VH", "VL": "B3 VL", "notes": "also called antibody G8"}, "B5": {"name": "anti-LAG-3 antibody clone C2 Fab (Fab, V domains shown)", "VH": "B3 VH", "VL": "not shown"}, "B6": {"name": "anti-LAG-3 antibody clone G8 in IgG4 format (antibody, V domains shown)", "VH": "B3 VH", "VL": "B3 VL", "notes": "also called G8 IgG4"}, "B7": {"name": "anti-LAG-3 antibody clone G8 Fab (Fab, V domains shown)", "VH": "B3 VH", "VL": "B3 VL"}, "B8": {"name": "anti-LAG-3 antibody clone A6 in IgG1 format (antibody, V domains shown)", "VH": "EVQLVQSGAEVKKPGSSVKVSCKASGYTFTSYYMHWVRQAPGQGLEWMGIINPSGGSTSYAQKFQGRVTMTRDTSTSTVYMELSSLRSEDTAVYYCAMPFGDFDYWGQGTLVTVSS", "VL": "not shown", "notes": "also called A6 IgG1"}, "B9": {"name": "anti-LAG-3 antibody clone A6 Fab (Fab, V domains shown)", "VH": "B8 VH", "VL": "not shown", "notes": "Fab format, from a human phage display library; the constant domains of the Fab are not"}, "B10": {"name": "anti-LAG-3 antibody clone A6 (format not stated) (antibody, V domains shown)", "VH": "B8 VH", "VL": "not shown", "notes": "also called antibody A6"}, "B11": {"name": "anti-LAG-3 antibody clone A6 in IgG4 format (antibody, V domains shown)", "VH": "B8 VH", "VL": "not shown", "notes": "also called A6 IgG4"}, "B12": {"name": "anti-LAG-3 antibody clone F5 in IgG1 format (antibody, V domains shown)", "VH": "EVQLVQSGAEVKKPGASVKVSCKVSGYTLTELSMHWVRQTPGKGLEWMGGFDPEDGETIYAQKFQGRVTMTEDTSTDTAYMELSSLRSEDTAVYYCATTWFGELYYWGQGTLVTVSS", "VL": "ETTLTQSPGTLSLSPGERATLSCRASQSVSSGYLAWYQQKPGQAPRLLIYDASSRATGIPDRFSGSGSGADFTLTISRLQPEDFAVYYCQQYGSSRPGLTFGGGTRVEIK", "notes": "IgG1 format; also called F5-IgG1"}, "B13": {"name": "anti-LAG-3 antibody clone F5 Fab (Fab, V domains shown)", "VH": "B12 VH", "VL": "B12 VL"}, "B14": {"name": "anti-LAG-3 antibody clone F5 (format not stated) (antibody, V domains shown)", "VH": "B12 VH", "VL": "B12 VL", "notes": "also called antibody F5"}, "B15": {"name": "anti-LAG-3 antibody clone F5 in IgG4 format (antibody, V domains shown)", "VH": "B12 VH", "VL": "B12 VL", "notes": "also called F5 IgG4"}}, "key": {"[1]": {"target": "T1, human LAG-3 coupled to phycoerythrin (human, UniProt P18627 23-450, limits assumed, coupled to phycoerythrin)", "T1 construct": "also called Labelled LAG-3", "T1 sequence (looked up)": "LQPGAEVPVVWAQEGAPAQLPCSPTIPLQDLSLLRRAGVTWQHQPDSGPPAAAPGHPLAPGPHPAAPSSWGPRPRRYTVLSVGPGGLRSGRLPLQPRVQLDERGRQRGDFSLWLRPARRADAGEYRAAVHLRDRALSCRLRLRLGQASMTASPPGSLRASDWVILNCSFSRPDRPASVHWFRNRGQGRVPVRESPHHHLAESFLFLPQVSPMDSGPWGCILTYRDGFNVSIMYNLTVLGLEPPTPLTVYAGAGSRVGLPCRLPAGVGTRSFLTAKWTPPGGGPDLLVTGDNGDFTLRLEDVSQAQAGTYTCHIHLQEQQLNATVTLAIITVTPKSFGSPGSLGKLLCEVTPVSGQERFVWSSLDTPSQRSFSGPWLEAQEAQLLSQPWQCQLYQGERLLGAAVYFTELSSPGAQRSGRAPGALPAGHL", "assay": "flow cytometry; inhibition of binding of PE-coupled human LAG-3 to MHC class II on Daudi cells", "procedure": "Daudi cells were plated in 96-well plates and fixed/permeabilised in Fix/Perm buffer in the presence of anti-CD16/CD32 antibody. Premixes were added onto the Daudi cells and incubated for 30 minutes at 4° C. The cells were then washed three times in Perm/Wash buffer, resuspended in PBS and analysed by flow cytometry."}, "[2]": {"target": "T2, mouse LAG-3 coupled to human Fc (mouse, UniProt Q61790 24-442, limits assumed)", "T2 construct": "also called murine LAG-3; Fc-coupled murine LAG-3; not shown: human Fc", "T2 sequence (looked up)": "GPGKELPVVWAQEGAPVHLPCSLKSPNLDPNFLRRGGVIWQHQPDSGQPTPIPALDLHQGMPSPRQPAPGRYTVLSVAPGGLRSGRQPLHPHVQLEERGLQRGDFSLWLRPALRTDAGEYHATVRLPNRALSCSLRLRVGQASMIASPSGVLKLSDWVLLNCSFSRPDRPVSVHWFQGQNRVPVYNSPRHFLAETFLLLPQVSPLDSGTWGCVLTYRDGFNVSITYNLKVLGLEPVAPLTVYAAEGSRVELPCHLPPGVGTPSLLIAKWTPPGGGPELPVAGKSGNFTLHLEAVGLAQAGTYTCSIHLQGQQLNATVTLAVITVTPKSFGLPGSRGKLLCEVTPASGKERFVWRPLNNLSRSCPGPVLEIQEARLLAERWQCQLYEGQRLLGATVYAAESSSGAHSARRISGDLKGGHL", "assay": "ELISA, plate coated with mouse LAG-3 coupled to human Fc, Fab, absorbance 450-670 nm"}, "[3]": {"target": "T2, mouse LAG-3 coupled to human Fc", "assay": "ELISA, plate coated with mouse LAG-3-Fc, crude periplasmic Fab extract, anti-human Fab-HRP, absorbance 450-670 nm", "procedure": "After extensive washes in PBS Tween-20, crude periplasmic extracts from the induction were transferred into the ELISA wells in the presence of 7% milk in PBS. After 90 minutes at room temperature under agitation and extensive washes, a goat anti-human Fab antibody coupled to HRP was added. One hour la ter, plates were washed and TMB substrate was added. The reaction was stopped with 1M HCl and optical density was measured at 450 nm with a reference at 670 nm. Antibodies giving an absorbance >0.1 were selected as positive. A first clonality screening was performed by DNA fingerprinting; clonality was then confirmed by sequencing."}, "[4]": {"target": "T1, human LAG-3 coupled to phycoerythrin", "assay": "blocking assay, flow cytometry: phycoerythrin-coupled human LAG-3 pre-incubated with Fab, then binding to MHC class II on Daudi cells"}, "[5]": {"target": "T3, biotinylated recombinant human LAG-3 (human, UniProt P18627 23-450, limits assumed, biotinylated)", "T3 construct": "also called soluble recombinant human LAG-3 protein", "T3 sequence (looked up)": "T1 sequence (looked up)", "assay": "ELISA, antibody coated on the plate, biotinylated recombinant human LAG-3 titrated (x axis, nM), streptavidin detection, absorbance 450-570 nm"}, "[6]": {"target": "T4, human LAG-3 (Bio-Layer Interferometry; construct not stated) (human, UniProt P18627 23-450, limits assumed)", "T4 sequence (looked up)": "T1 sequence (looked up)", "assay": "Bio-Layer Interferometry"}, "[7]": {"target": "T5, Human LAG-3 coupled to human Fc (human, UniProt P18627 23-450, limits assumed)", "T5 construct": "also called LAG-3-Fc; human LAG-3-Fc; not shown: human Fc", "T5 sequence (looked up)": "T1 sequence (looked up)", "assay": "SPR (ProteOn XPR 36), human LAG-3-Fc immobilised, A6 Fab as analyte", "procedure": "(§1) Association and dissociation rates were measured with a ProteOn XPR 36 analyser (Biorad) and the affinity (KD) was calculated."}, "[8]": {"target": "T5, Human LAG-3 coupled to human Fc", "assay": "SPR (ProteOn XPR 36), human LAG-3-Fc immobilised, A6 Fab as analyte at five concentrations (L1A1-L1A5)", "procedure": "as §1"}, "[9]": {"target": "T1, human LAG-3 coupled to phycoerythrin", "assay": "blocking assay, flow cytometry: labelled LAG-3 pre-incubated with Fab, then binding to MHC class II on Daudi cells, mean fluorescence intensity"}}}
{"binder": "B1", "values": [{"measurement": "IC50", "setting": "[1]", "value": 378, "unit": "nM"}, {"measurement": "binding result", "setting": "[2]", "value": "binds"}]}
{"binder": "B2", "values": [{"measurement": "binding result", "setting": "[3]", "value": "binds"}, {"measurement": "IC50", "setting": "[4]", "value": 18, "unit": "nM"}]}
{"binder": "B3", "values": [{"measurement": "EC50 (read off the curve)", "setting": "[5]", "value": "~0.8", "unit": "nM"}]}
{"binder": "B4", "values": [{"measurement": "Kd", "setting": "[6]", "value": 0.7, "unit": "nM"}]}
{"binder": "B5", "values": [{"measurement": "binding result", "setting": "[3]", "value": "no binding"}, {"measurement": "IC50", "setting": "[4]", "value": 33, "unit": "nM"}]}
{"binder": "B6", "values": [{"measurement": "EC50 (read off the curve)", "setting": "[5]", "value": "~0.4", "unit": "nM"}]}
{"binder": "B7", "values": [{"measurement": "binding result", "setting": "[3]", "value": "no binding"}, {"measurement": "IC50", "setting": "[4]", "value": 12, "unit": "nM"}]}
{"binder": "B8", "values": [{"measurement": "EC50 (read off the curve)", "setting": "[5]", "value": "~0.7", "unit": "nM"}]}
{"binder": "B9", "values": [{"measurement": "Kd", "setting": "[7]", "value": 2.2, "unit": "nM"}, {"measurement": "IC50", "setting": "[1]", "value": 62.2, "unit": "nM"}, {"measurement": "Kd", "setting": "[8]", "value": 2.18, "unit": "nM"}, {"measurement": "koff", "setting": "[8]", "value": 0.000456, "unit": "s⁻¹"}, {"measurement": "kon", "setting": "[8]", "value": 209000, "unit": "M⁻¹ s⁻¹"}, {"measurement": "IC50", "setting": "[4]", "value": 111, "unit": "nM"}, {"measurement": "IC50 (read off the curve)", "setting": "[9]", "value": "~60", "unit": "nM"}]}
{"binder": "B10", "values": [{"measurement": "Kd", "setting": "[6]", "value": 1.25, "unit": "nM"}]}
{"binder": "B11", "values": [{"measurement": "EC50 (read off the curve)", "setting": "[5]", "value": "~0.6", "unit": "nM"}]}
{"binder": "B12", "values": [{"measurement": "EC50 (read off the curve)", "setting": "[5]", "value": "~5", "unit": "nM"}]}
{"binder": "B13", "values": [{"measurement": "binding result", "setting": "[3]", "value": "no binding"}, {"measurement": "IC50", "setting": "[4]", "value": 3, "unit": "nM"}]}
{"binder": "B14", "values": [{"measurement": "Kd", "setting": "[6]", "value": 1.21, "unit": "nM"}]}
{"binder": "B15", "values": [{"measurement": "EC50 (read off the curve)", "setting": "[5]", "value": "~3", "unit": "nM"}]}
